A short description of data set [1]: Determination of sulfite reductase activity (oxidation of NADPH by sulfite, 340 nm). The data set is classed as biochemical. As to the method: The sulfite reductase activity was measured spectrophotometrically at 340 nm under aerobic conditions by following the oxidation of NADPH by sulfite according to the method of determining enzyme activity of Siegel and others (1973). To 0.9 mL reaction mixture [0.1 M phosphate buffer (pH 7.7) containing 0.5 mM EDTA, 0.5 mM NaHSO3, 1 μM FMN, and 0.2 mM NADPH], 0.1 mL of reductase was added and incubated at 25° C. The activity was determined according to the initial velocity after the addition of reductase and corrected by the slow oxidation of NADPH in the absence of sulfite. One activity unit was defined as the amount of enzyme which catalyzed the oxidation of 1 μmol NADPH within 1 minute reaction 25° C. under the above condition.

Data set [2] can be described thus: Optimal pH value of the sulfite reductase. The data set is classed as biochemical. The following applies: 25° C., 5 minutes. As to the method:
Optimal pH value. To 0.9 mL reaction mixture with various pHs (0.2 M citrated buffer: pH 4.0 to 6.0; 0.2 M phosphate buffer: pH 6.0 to 8.0 and 0.2 M bicarbonate buffer: pH 8.0 to 10,0; all buffers containing 0.5 mM EDTA, 0.5 mM NaHSO3, 1 μM FMN, and 0.2 mM NADPH), 0.1 mL of reductase was added and incubated at 25° C. for 5 minutes. The activity was determined from initial velocity and corrected by the oxidation of NADPH in the absence of sulfite according the method of Siegel and others (1973).

Data set [3] can be described thus: Optimal temperature of the sulfite reductase. The data set is classed as biochemical. The following applies: pH 7.7, 5 minutes. The protocol: Optimal temperature. To 0.9 mL reaction mixture [0.1 M phosphate buffer (pH 7.7) containing 0.5 mM EDTA, 0.5 mM NaHSO3, 1 μM FMN, and 0.2 mM NADPH], 0.1 mL of reductase was added and incubated at various temperatures (5, 10, 15, 20, 25, 30, 35, 40, 45, 50, 55 and 60° C.) for 5 minutes. The activity was determined from initial velocity and corrected by the oxidation of NADPH in the absence of sulfite according the method of Siegel and others (1973).

The nature of data set [4]: Stability of low temperature storage of the enzyme solution. The data set is classed as physicochemical. The protocol: The enzyme solution was stored at 4° C. and −20° C., respectively. The residue enzyme activity was determined per constant time interval to test the stability of low-temperature storage.

As to “sulfite reductase from Saccharomyces cerevisiae: purified sulfite reductase from Saccharomyces cerevisiae (CCRC 22223), molecular weight 358,000”, the specific activity was found to be 1.34 units/mg in data set [1] (Table 2, purification steps of the Saccharomyces cerevisiae enzyme) and 1.34 units/mg in data set [1] (purified enzyme, 25° C., pH 7.7). In addition, the “optimum pH” value in data set [2] was 7.3. In addition, the optimum temperature in data set [3] is 25 °C. Besides, the results for the “enzyme activity after storage” value in data set [4] (enzyme solution stored for 2 months at −20° C.) and in data set [4] (enzyme solution stored for 28 days at 4° C.) were “nearly not changed” and 77.8%, respectively.

These data come from patent US7183091B2, “Sulfite reductase, the process for producing the same and the use thereof” (Nugen Bioscience (Taiwan) Co., Ltd., priority 2003, dated 2007).
